This is an account of results in article PMC4109720.

For one assay, the target named is myc-JIP1-F336A (human) (UniProt Q9UQF2). The assay is described as follows: co-IP.
In a further assay the target is myc-JIP1-ΔLIR (human) (UniProt Q9UQF2). The assay is described as follows: co-IP.

In the case of “GFP-LC3 (from UniProt Q9GZQ8 1-120) (natural protein)”, the percent of the GFP-LC3 binding of wildtype myc-JIP1 (densitometry of co-IP) in the assay with myc-JIP1-F336A (human) and with myc-JIP1-ΔLIR (human) was 20% throughout.
